Laboratory results from patent US20240158497A1 (published 2024).

T1: human GP130 extracellular domain expressed with a C-terminal mouse IgG2a Fc tag (hGP130-mFc) (human)
T1 construct: also called dimeric human GP130
T1 chain: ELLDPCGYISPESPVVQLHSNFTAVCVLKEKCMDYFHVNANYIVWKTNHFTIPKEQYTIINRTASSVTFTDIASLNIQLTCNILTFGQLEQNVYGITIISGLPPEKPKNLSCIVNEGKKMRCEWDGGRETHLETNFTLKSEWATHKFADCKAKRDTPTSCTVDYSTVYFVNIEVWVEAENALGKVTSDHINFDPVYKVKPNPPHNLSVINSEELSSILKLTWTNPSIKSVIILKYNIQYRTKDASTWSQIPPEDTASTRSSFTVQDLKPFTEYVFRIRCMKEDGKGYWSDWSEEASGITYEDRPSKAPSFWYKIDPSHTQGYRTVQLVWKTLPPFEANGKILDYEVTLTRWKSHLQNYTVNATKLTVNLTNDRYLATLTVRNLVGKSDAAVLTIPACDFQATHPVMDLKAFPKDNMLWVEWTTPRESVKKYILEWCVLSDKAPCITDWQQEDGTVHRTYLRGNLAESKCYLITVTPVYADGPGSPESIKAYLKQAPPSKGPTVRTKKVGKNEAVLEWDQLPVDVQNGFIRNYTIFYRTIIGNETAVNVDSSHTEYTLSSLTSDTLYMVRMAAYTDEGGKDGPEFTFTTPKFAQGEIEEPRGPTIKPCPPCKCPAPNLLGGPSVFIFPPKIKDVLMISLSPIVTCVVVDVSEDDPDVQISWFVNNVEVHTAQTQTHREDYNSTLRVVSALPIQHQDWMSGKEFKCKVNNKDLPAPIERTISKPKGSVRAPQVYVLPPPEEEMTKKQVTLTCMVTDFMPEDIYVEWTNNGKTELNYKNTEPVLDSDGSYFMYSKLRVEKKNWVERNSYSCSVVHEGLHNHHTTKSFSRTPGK

B1: MAb16623 (antibody, V domains shown)
VH: EVQLVESGGGLVQPGGSLRLSCAASGLTFSSYEMNWVRQAPGKGLEWVSHISSAGSTKYYADSVKGRFTISRDNAKNSLFLQMNSLRAEDTAIYYCAGYNYAYYYFGVDVWGQGTTVTVSS
VL: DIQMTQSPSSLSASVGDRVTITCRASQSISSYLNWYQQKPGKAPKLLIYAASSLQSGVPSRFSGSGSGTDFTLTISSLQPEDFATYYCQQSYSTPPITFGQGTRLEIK
notes: captured through anti-human Fc
B2: MAb16666 (antibody, V domains shown)
VH: EVQLVESGGGLVQSGGSLRLSCAASGFTFSRYEMNWVRQAPGKGLEWVAYISNTGTTRDYSDSVKGRFTISRDNAKNSLYLQMSSLRVEDTAVYYCVREKFSGTSDWFDPWGQGTLVTVSS
VL: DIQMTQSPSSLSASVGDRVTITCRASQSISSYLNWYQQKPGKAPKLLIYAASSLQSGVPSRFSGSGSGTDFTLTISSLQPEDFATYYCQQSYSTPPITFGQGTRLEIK
notes: as for B1
B3: MAb16662 (antibody, V domains shown)
VH: EVQLVESGGGLVQPGGSLRLSCTASGFTFSNYAIFWVRQAPGKGLEYVSGISNNGVTKYYADSVRDRFTISRDNSRNTVSIQMDSLRTEDMAVYYCARENWGSDDGFDIWGQGTMVTVSS
VL: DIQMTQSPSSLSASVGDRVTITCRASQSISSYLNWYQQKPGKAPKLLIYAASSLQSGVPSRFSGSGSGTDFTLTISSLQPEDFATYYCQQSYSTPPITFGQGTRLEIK
notes: as for B1
B4: MAb16636 (antibody, V domains shown)
VH: QLQLQESGPGLVKPSETLSLICTVSGGSISSNNYYWGWIRQPPGKGLEWIGNLYGSGSTYYNPSLKSRVTISVDTSKNQFSLKLSFVTAADTAVYHCARWDTNGGAFDIWGQGTMVTVSS
VL: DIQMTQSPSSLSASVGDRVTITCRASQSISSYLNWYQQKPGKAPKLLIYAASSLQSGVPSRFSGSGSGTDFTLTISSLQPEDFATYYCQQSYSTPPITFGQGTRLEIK
notes: as for B1
B5: MAb16656 (antibody, V domains shown)
VH: EVQLVESGGGLVQPGRSLRLSCAASGFTLDDFAMHWVRQAPGKGLEWVSGISWNSGNIGYADSVKGRFTISRDNARNSLYLQMNSLRAEDTALYYCTSGYYLYYAMDVWGQGTTVTVSS
VL: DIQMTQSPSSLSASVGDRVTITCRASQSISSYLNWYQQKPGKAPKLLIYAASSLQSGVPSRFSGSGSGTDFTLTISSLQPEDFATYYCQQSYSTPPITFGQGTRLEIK
notes: as for B1
B6: MAb16665 (antibody, V domains shown)
VH: QVQLVESGGGVVQPGRSLRLACAASGFTFRSYGMHWVRQAPGKGLEWVAVIWYDGSNKYYTDSVKGRFTISRDNSKNTLYLQMNSLRAEDTAMYYCAIDKWATVTTYLFDYWGQGTLVTVSS
VL: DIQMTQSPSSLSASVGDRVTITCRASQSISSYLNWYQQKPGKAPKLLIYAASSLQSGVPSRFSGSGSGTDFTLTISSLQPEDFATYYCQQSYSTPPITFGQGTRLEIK
notes: as for B1
B7: MAb16637 (antibody, V domains shown)
VH: QVQLVQSGAEVKKPGASVKVSCKASGYTFTSLGISWVRQAPGQGLEWMGWISAYSGNRDYAQKFQGRVTMTTDTSTSTAYMELRSLRSDDTAVYYCARSLRFDYWGQGTLVTVSS
VL: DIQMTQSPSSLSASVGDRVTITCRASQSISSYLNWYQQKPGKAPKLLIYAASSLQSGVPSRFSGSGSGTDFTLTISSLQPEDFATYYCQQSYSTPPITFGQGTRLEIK
notes: as for B1
B8: MAb16664 (antibody, V domains shown)
VH: QVQLVQSGTEVKKPGSSVKVSCKASGGTFSTYPINWVRQAPGQGLEWMGGIIPIFGTASYAQKFQGRVAITTDESTSTAYMELNSLRSEDTAVYYCARERPNWGSNDYWGQGTLVTVSS
VL: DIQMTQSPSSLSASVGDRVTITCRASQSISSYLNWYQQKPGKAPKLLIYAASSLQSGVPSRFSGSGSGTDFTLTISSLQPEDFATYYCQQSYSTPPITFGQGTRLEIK
notes: as for B1
B9: MAb16659 (antibody, V domains shown)
VH: QVQLVQSGPEVKKPGSSVKVSCKASGGTIDRNEITWVRQAPGQGLEWMGVIIPILGEAHYERKFQGRLTITMDESTSTAYMELSNLRSEDTAVYYCARERAARGYLDYWGQGTLVTVSS
VL: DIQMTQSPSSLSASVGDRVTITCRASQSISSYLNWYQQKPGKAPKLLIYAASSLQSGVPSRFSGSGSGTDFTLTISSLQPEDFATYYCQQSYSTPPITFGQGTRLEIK
notes: as for B1
B10: MAb16622 (antibody, V domains shown)
VH: EVQLVESGGGVVRPGGSLRLSCTASGFTFDDYGMSWVRQAPGKGLEWVSGINWNGGRTEYADAVKGRFIISRDNAKNSLYLQMNSLRAEDTALYFCARTELRWDYWGQGTLVTVSS
VL: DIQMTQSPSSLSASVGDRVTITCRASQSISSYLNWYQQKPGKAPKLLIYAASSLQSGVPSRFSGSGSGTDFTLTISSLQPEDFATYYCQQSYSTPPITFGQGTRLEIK
notes: as for B1

Target: T1, human GP130 extracellular domain …
Assay: SPR Biacore, mAb captured via anti-hFc, 25 C
Experimental: (§1) Equilibrium dissociation constant (KD) for different GP130 reagents binding to purified anti-GP130 monoclonal antibodies were determined using a real-time surface plasmon resonance based Biacore 4000 biosensor. All binding studies were performed in 10 mM HEPES, 150 mM NaCl, 3 mM EDTA, and 0.05% v/v Surfactant Tween-20, pH 7.4 (HBS-ET) running buffer at 25° C. and 37° C. The Biacore sensor surface was first derivatized by amine coupling with a monoclonal mouse anti-human Fc antibody (GE, #BR-1008-39) to capture anti-GP130 monoclonal antibodies. […] Reagents tagged with “mmH” are monomeric, whereas reagents tagged with “mFc” are dimeric. Thus, for example, “hGP130-mmH” is also referred to as “monomeric human GP130,” and “hGP130-mFc” is also referred to as “dimeric human GP130.”
(§2) The association rate (k a) and dissociation rate (kd) were determined by fitting the real-time binding sensorgrams to a 1:1 binding model with mass transport limitation using Scrubber 2.0c curve-fitting software. Binding dissociation equilibrium constant (KD) and dissociative half-life (t ½) were calculated from the kinetic rates as: […]

100 nM Ag Bound (RU)	Kd [nM]	koff [s⁻¹]	kon [M⁻¹ s⁻¹]	t½ [min]	Binder
184	0.468	0.000208	444000	56	B1
253	0.12	0.000137	1.14e+06	85	B2
90	0.772	0.000479	620000	24	B3
91	1.92	0.000113	58800	102	B4
98	1.68	0.000132	78100	88	B5
158	2.72	0.00109	399000	11	B6
189	0.647	0.00015	232000	77	B7
26	0.116	0.000354	3.05e+06	33	B8
186	0.0366	6.28e-05	1.72e+06	184	B9
164	0.615	0.000306	497000	38	B10

The binders below were run against T2, mouse GP130 extracellular domain expressed with a C-terminal myc-myc-hexahistidine tag (mGP130-mmH) (mouse, UniProt Q00560 23-617) (assay: SPR Biacore, mAb captured via anti-hFc, 25 C).
T2 construct: Monomeric; the entry includes the myc-myc-His tag
Experimental: as §1, §2

100 nM Ag Bound (RU)	binding result	Binder
0	no binding (tested: 100 nM)	B1
1	–	B2
-1	–	B3
0	no binding (tested: 100 nM)	B4
0	–	B5
0	–	B6
1	–	B7
0	–	B8
1	–	B9
1	no binding (tested: 100 nM)	B10

Each binder was assayed against T3, rat GP130 extracellular domain expressed with a C-terminal myc-myc-hexahistidine tag (rGP130-mmH) (rat, UniProt P40190 23-618) (assay: SPR Biacore, mAb captured via anti-hFc, 25 C).
T3 construct: Monomeric; the entry includes the myc-myc-His tag
Experimental: as §1, §2

100 nM Ag Bound (RU)	binding result	Binder
0	no binding (tested: 100 nM)	B1
1	no binding (tested: 100 nM)	B2
-1	–	B3
1	no binding (tested: 100 nM)	B4
-1	–	B5
0	–	B6
0	no binding (tested: 100 nM)	B7
0	no binding (tested: 100 nM)	B8
2	no binding (tested: 100 nM)	B9
0	no binding (tested: 100 nM)	B10

Target: T1, human GP130 extracellular domain …
Assay: SPR Biacore, mAb captured via anti-hFc, 37 C
Experimental: as §1, §2

100 nM Ag Bound (RU)	Kd [nM]	koff [s⁻¹]	kon [M⁻¹ s⁻¹]	t½ [min]	Binder
224	0.56	0.000325	580000	36	B1
285	0.298	0.00036	1.21e+06	32	B2
114	4.15	0.00265	639000	4	B3
136	1.2	0.000167	139000	69	B4
123	1.7	0.000297	175000	39	B5
172	3.92	0.00256	653000	5	B6
246	0.65	0.000323	496000	36	B7
37	0.0815	0.000109	1.33e+06	106	B8
227	0.0249	4.76e-05	1.91e+06	243	B9
201	1.29	0.000825	639000	14	B10

These binders were tested against T2, mouse GP130 extracellular domain … (assay: SPR Biacore, mAb captured via anti-hFc, 37 C).
Experimental: as §1, §2

100 nM Ag Bound (RU)	binding result	Binder
0	–	B1
0	no binding (tested: 100 nM)	B2
1	–	B3
0	–	B4
0	no binding (tested: 100 nM)	B5
-1	–	B6
-1	–	B7
1	no binding (tested: 100 nM)	B8
1	no binding (tested: 100 nM)	B9
1	–	B10

These binders were tested against T3, rat GP130 extracellular domain … (assay: SPR Biacore, mAb captured via anti-hFc, 37 C).
Experimental: as §1, §2

100 nM Ag Bound (RU)	Binder
0	B1
1	B2
1	B3
0	B4
0	B5
-1	B6
0	B7
0	B8
1	B9
1	B10
